Measured values published in publication PMC5435944.

Target: Mre11-Rad50 (hMR) WT-WT;Nbs1 (Homo sapiens;Homo sapiens, UniProt Q92878;P49959;O60934 1-1312;1-708;1-754, |)
Test: EMSA

Chain of Mre11-Rad50 (hMR) WT-WT;Nbs1 (Q92878 whole entry, chain 1 of 3): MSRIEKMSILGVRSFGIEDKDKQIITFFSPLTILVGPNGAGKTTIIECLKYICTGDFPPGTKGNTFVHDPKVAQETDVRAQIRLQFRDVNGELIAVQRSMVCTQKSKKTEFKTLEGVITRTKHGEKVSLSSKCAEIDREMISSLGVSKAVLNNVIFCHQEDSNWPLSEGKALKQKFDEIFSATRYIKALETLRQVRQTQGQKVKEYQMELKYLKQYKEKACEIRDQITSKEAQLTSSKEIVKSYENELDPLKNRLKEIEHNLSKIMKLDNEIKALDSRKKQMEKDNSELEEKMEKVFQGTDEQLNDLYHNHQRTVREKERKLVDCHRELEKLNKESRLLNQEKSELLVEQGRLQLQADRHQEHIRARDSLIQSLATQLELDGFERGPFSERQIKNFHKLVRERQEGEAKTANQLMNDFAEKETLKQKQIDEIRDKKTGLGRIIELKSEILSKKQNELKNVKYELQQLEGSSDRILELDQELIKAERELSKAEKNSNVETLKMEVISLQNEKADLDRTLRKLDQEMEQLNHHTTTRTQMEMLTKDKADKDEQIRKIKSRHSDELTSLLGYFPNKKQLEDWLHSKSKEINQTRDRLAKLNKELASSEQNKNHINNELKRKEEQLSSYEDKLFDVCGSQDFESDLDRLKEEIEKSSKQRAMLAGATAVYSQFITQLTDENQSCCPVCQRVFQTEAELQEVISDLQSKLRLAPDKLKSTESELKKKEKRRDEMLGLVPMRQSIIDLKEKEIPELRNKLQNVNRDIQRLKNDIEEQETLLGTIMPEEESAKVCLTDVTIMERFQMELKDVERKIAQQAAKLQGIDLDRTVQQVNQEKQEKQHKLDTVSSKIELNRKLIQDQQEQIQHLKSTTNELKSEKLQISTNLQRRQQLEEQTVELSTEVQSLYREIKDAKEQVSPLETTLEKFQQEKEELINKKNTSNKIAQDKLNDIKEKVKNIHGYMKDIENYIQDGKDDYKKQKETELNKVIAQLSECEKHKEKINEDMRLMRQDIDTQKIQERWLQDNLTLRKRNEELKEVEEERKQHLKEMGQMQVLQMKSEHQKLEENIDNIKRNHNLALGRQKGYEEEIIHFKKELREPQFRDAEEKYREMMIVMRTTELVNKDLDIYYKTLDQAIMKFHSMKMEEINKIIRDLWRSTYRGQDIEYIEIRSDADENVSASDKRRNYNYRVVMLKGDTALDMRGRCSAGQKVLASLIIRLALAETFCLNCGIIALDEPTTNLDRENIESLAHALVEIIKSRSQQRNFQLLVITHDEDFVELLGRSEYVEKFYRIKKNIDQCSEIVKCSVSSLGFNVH
Chain of Mre11-Rad50 (hMR) WT-WT;Nbs1 (P49959 whole entry, chain 2 of 3): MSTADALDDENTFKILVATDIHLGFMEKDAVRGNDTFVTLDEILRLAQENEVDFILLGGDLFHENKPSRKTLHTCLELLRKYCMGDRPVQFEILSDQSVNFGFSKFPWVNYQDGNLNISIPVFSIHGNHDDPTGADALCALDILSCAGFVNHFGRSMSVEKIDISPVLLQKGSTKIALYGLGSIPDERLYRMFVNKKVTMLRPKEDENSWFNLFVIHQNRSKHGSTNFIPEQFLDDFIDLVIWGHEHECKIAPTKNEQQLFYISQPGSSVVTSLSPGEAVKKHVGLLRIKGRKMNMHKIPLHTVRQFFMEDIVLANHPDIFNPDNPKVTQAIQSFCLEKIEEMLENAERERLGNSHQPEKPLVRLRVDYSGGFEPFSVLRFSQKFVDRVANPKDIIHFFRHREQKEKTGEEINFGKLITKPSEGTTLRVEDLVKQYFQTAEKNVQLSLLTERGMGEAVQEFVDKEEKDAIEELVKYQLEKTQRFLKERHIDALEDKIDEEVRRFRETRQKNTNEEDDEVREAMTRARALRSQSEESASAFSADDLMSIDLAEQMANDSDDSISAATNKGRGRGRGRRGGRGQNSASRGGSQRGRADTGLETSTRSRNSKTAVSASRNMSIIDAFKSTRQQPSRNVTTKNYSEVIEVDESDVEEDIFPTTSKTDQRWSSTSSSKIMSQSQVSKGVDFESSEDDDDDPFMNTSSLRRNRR
Chain of Mre11-Rad50 (hMR) WT-WT;Nbs1 (O60934 whole entry, chain 3 of 3): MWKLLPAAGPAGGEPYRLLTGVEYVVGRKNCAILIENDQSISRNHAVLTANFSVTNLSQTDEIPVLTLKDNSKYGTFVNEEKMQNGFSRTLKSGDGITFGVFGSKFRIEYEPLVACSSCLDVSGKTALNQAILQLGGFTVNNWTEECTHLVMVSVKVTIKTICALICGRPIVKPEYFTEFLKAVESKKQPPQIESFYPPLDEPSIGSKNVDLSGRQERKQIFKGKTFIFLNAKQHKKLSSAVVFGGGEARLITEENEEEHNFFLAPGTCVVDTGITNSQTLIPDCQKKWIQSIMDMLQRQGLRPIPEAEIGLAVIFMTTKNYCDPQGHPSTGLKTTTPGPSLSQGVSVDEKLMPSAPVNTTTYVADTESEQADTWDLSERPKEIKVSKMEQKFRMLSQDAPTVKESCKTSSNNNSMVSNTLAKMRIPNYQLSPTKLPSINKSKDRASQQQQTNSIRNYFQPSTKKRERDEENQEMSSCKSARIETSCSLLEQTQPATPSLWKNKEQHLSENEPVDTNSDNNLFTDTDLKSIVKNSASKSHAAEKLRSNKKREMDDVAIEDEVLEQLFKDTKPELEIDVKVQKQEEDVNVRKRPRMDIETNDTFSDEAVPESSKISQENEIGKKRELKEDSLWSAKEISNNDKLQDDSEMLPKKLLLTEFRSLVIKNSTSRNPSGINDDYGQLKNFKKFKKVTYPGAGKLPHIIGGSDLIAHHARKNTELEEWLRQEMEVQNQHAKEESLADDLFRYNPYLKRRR

B1: TP4536/TP4559 (dsDNA)
DNA 1: TGGGTCAACGTGGGCAAAGATGTCCTAGCAATGTAATCGTCTATGACGTT
DNA 2: AACGTCATAGACGATTACATTGCTAGGACATCTTTGCCCACGTTGACCCA
modifications: 5' biotin-TEG on strand 1; five phosphorothioate bonds at 3' end of strand 2 (G*A*C*C*C*A)
B1: binds.
